Columns and labels:
[1] = molecular target: T1, VAPA (Rattus norvegicus, UniProt Q9Z270); assay: Peptide spot array (far western) of binding to VAPA, cell-free; conditions: lysate of VAPA-transfected HEK293 cells (FIG. 11A)
T1 construct: pEGFP-N1-VAPA; 1-242 (Addgene #18874); host or cells: HEK293 cells; whole lysate at 1 mg/ml total protein overlaid on the peptide arrays
T1 sequence (Q9Z270 8-249): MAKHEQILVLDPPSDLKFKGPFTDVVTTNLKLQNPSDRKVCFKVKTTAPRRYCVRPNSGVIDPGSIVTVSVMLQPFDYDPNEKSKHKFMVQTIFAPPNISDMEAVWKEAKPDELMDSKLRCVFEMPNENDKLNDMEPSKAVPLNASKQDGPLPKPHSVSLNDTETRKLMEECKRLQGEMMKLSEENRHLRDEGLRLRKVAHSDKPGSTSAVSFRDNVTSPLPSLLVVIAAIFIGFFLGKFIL
Method: Standard 9-fluorenylmethoxy carbonyl chemistry was used to synthesize peptides and spot them onto Celluspots nitrocellulose disks prederivatized with a polyethylene glycerol spacer (Intavis), using the Respep peptide synthesizer. The peptides were spotted on 20 membranes fitted on microscope glass slides (Intavis) using an Intavis MultiPep robot. For hybridization and immunoblotting of arrays, Celluspots slides were washed in TBST (50 mM Tris-HCl, pH 7.4, 150 mM NaCl, 0.1% Tween 20) for 10 minutes, […] blocked for 1 hour at room temperature (RT) with gentle shaking in TBST containing 5% nonfat dry milk. Lysates from HEK293 cells transfected as before (Yeh et al., J Neurosci. 37: 5648-5658, 2017; Yeh et al., Proc Natl Acad Sci USA. 116: 15696-15607, 2019; Dustrude et al., Proc Natl Acad Sci USA. 113: E8443-E8452, 2016) with pEGFP-N1-VAPA; 1-242 (Addgene #18874) were made in 20 mM Tris, 50 mM NaCl, 2 mM MgCl2, 1% Tergitol, 0.5% sodium deoxycholate, 0.1% sodium dodecyl sulfate with protease (Cat #B14002, Bimake), phosphatase (Cat #B15002, Bimake) inhibitor cocktails and 5 U/ml of universal nuclease (Cat #88702, Thermofisher) added extemporaneously. The concentration of lysates was measured by BCA (Cat #23227, Thermofisher) and peptide arrays were incubated with 1 mg/ml of total protein overnight at 4° C. (Yeh et al., J Neurosci. 37: 5648-5658, 2017; Yeh et al., Proc Natl Acad Sci USA. 116: 15696-15607, 2019; Moutal et al., Pain. 158: 2203-2221, 2017). Peptide arrays were washed 3 times for 5 minutes at RT with TBST and incubated with the primary antibody anti-VAPA (RRID AB_2722707; UC Davis/NIH NeuroMab Facility) for 2 hours at RT with gentle shaking in TBST, 5% BSA. After washing with TBST, the membranes were incubated in secondary antibody (IRDye® 800CW goat anti-mouse IgG secondary antibody; RRID AB_621842; Li-Cor) for 45 minutes, washed 3 times for 5 minutes in TBST, and visualized by infrared fluorescence (Li-Cor). Four independent peptide spot arrays were used in this study. Fluorescence intensity was analyzed with Image studio (Li-Cor).
Kv2.1 and Kv2.2 channels are recruited to ER-PM junctions via C-terminal PRC-mediated interaction with vesicle-associated membrane protein (VAMP)-associated protein A/B (VAPA/B) (Kirmiz, et al., J Neurosci. 38: 7562-7584, 2018; Johnson et al., Proc Natl Acad Sci USA. 115: E7331-E7340, 2018; Johnson, et al., Channels (Austin). 13: 88-101, 2019). This process occurs at non-canonical FFAT binding motifs within the PRC domains of Kv2.1 and Kv2.2 (FIG. 7B), which are recruited to the FFAT binding domain on VAPA/B (Kirmiz, et al., J Neurosci. 38: 7562-7584, 2018; Johnson et al., Proc Natl Acad Sci USA. 115: E7331-E7340, 2018; Johnson, et al., Channels (Austin). 13: 88-101, 2019). […]

[2] = molecular target: T2, Kv2.1 surface clusters (Rattus norvegicus, UniProt P15387); assay: Kv2.1 surface cluster density in live Kv2.1-GFP-transfected cortical neurons treated with TAT-linked peptides; assay type: cell-based; conditions: 10 μM
T2 construct: expressed in transfected cells; host or cells: primary rat cortical neurons (E16-17 Sprague-Dawley), Lipofectamine 2000
T2 sequence (P15387 1-857): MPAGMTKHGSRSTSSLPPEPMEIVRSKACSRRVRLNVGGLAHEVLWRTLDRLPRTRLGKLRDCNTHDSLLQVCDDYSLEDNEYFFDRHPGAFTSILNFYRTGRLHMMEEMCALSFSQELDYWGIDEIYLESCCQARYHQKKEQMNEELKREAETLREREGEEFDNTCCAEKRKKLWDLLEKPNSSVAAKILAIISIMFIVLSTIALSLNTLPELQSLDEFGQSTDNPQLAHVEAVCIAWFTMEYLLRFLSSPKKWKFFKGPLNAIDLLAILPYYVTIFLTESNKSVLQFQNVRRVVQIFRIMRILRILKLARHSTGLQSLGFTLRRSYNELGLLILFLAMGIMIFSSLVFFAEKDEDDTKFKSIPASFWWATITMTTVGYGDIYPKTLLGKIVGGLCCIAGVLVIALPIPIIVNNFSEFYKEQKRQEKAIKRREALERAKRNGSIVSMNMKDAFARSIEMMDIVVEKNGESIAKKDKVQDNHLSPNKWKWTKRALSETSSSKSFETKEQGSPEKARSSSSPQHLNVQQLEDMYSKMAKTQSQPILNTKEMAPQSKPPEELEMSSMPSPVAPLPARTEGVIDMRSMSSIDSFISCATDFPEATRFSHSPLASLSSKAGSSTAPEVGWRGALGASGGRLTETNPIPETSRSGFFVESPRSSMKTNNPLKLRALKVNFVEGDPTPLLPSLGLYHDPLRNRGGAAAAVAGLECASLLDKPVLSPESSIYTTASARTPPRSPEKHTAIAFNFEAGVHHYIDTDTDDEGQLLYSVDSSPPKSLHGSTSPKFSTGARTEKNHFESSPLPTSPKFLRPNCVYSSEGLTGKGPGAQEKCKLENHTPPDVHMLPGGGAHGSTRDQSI
Method: In vitro experiments utilized primary cortical neuronal cultures prepared from embryonic day 16-17 Sprague-Dawley rats of either sex in a protocol described previously (McCord et al., J Physiol (Lond). 592: 3511-3521, 2014). Timed-pregnant rats (Charles River Laboratories, Wilmington, Mass.) were sacrificed by CO2 inhalation. Embryonic cortices were dissociated with trypsin (0.6 mg/mL) and cells plated in sterile 6-well plates on poly-L-ornithine-coated glass coverslips at a density of 670,000 cells per well. Cytosine arabinoside (1-2 μM) was utilized to inhibit non-neuronal proliferation on day 14 in vitro (DIV); cultures were utilized at 21-25 DIV.
; Invitrogen, Carlsbad, Calif.). […]; Thermo Fisher Scientific, Waltham, Mass.). […]. Cultures were utilized 18-24 hours following transfection. cDNA amounts for each transfection experiment are described below for each figure. FIG. 1: 0.375 μg/well Kv2.1-GFP plasmid, 0.495 μg/well pcDNA3 vector plasmid, and 0.63 μg/well of either DP-1 or Sc-1, or Kv2.2 CT-expressing plasmid. FIGS. 2, 8, 9, 10, 12: 0.375 μg/well Kv2.1-GFP plasmid, 0.15 μg/well tdTomato plasmid (from Gerhart Ryffel; Addgene plasmid #30530), and 0.975 μg/well pcDNA3 vector plasmid.
To analyze Kv2.1 distribution in live primary cortical neurons, cells were transfected with both a tdTomato construct and a GFP-tagged Kv2.1 construct (O'Connell, et al., J Neurosci. 26: 9609-9618, 2006) and imaged on a Nikon A1+ confocal microscope (Nikon, Tokyo, Japan). Cells were chosen at random by looking only at the tdTomato signal (561 nm), in order to avoid bias. At least three separate culture dates were used per experiment and three coverslips were transfected per condition each time. For these experiments, “n” refers to the total number of cells imaged. Five to 15 optical sections (0.5 μm) capturing the cell surface were obtained of single cells at 60× magnification (Schulien et al., J Physiol (Lond). 594: 2647-2659, 2016), creating a maximum-intensity projection (MAX-IP) of Kv2.1-GFP distribution. To analyze Kv2.1 distribution in the cerebral cortex of fixed brain slices, 51-54 image fields were obtained at 60× magnification across 18 sections from three fixed mouse brains per treatment (total of 6 animals). Image fields were captured by first focusing on an area of superficial cortex closest to the cover glass. Next, 24 optical sections (0.5 μm) were obtained moving deeper into the tissue in order to produce a 12 μm maximum-intensity projection for analysis of Kv2.1 distribution. Laser power, HV (gain), offset, pinhole size, and all camera parameters were kept identical between all samples in a given experiment. Nikon Instruments Software Advanced Research (NIS-Elements AR) was utilized to analyze GFP-tagged Kv2.1 channel cluster distribution. For live images of transfected neurons, object count parameters were customized to define a Kv2.1 cluster as an area of high intensity GFP fluorescence (compared to background), measuring 0.05 μm^2 or larger (Schulien et al., J Physiol (Lond). 594: 2647-2659, 2016). Kv2.1 cluster density was calculated by normalizing the number of Kv2.1 clusters counted to the somatic area of each neuron (#Kv2.1 clusters/μm^2). Due to high variability in GFP-Kv2.1 expression between individual neurons, intensity thresholding required cell-specific local-background subtraction. In each neuron analyzed, two populations on Kv2.1-GFP expression were first noted—(a) highly localized signals of clustered Kv2.1 channels, and (b) diffuse background staining that represents freely-dispersed, conducting Kv2.1 channels on the plasma membrane. A small region of interest (ROI) within region (b) was set as the background subtraction standard of the image, creating an optimal signal-to-noise ratio for clustered Kv2.1 channels. […]

[3] = 2 hour treatment, mean±SEM (FIG. 11B)
[4] = 24 hour treatment, mean±SEM (FIG. 11C)

| Substance | binding to VAPA in peptide spot array [1] | mean Kv2.1 surface cluster density [2, 3] | mean Kv2.1 surface cluster density [2, 4] |
| --- | --- | --- | --- |
| EFFDAPE [positive control peptide, a canonical FFAT motif] | strong VAPA binding | – | – |
| SFISCAT [non-canonical FFAT motif of Kv2.1] | no binding | – | – |
| SFTSCAT [non-canonical FFAT motif of Kv2.2] | no binding | – | – |
| SIDSFTS [DP-2, seven amino acid declustering peptide from Kv2.2 CT] | no binding | – | – |
| YGRKKRRQRRRDEEFAP [TAT-FFATSc, scramble control peptide of TAT-FFAT] | – | 0.14±0.02 #Kv2.1 clusters/μm^2 of neuronal soma | 0.20±0.01 #Kv2.1 clusters/μm^2 of neuronal soma |
| YGRKKRRQRRREFFDAPE [TAT-FFAT, TAT-linked derivative of the canonical FFAT motif] | – | 0.15±0.03 #Kv2.1 clusters/μm^2 of neuronal soma | 0.19±0.02 #Kv2.1 clusters/μm^2 of neuronal soma |

— US11673916B2, “Neuroprotective peptides and methods of their use” (University of Pittsburgh—Of the Commonwealth System of …, priority 2020, dated 2023)
